Ends that are not written are not given here. * marks the point of attachment. Biotin = O=C1N[C@H]2[C@H](CS[C@H]2CCCCC(=O)*)N1
Legend:
Experiment in all cases: peptide or protein array; E. coli proteome chip: purified His-tagged proteins printed in duplicate on Fullmoon slides, blocked with 1% BSA; 10 nM N-terminal biotinylated LfcinB with 1% BSA, room temperature, 1 h; detected with DyLight 649-labeled streptavidin, ratio to DyLight 549-labeled anti-His antibody; ProCAT normalisation, local cut-off; triplicate chips
Details in all cases: both partners purified
AtpH = target: T1, AtpH (E. coli K-12, UniProt P0ABA4 1-177)
T1 construct: AtpH, E. coli K-12
T1 sequence (P0ABA4 whole entry): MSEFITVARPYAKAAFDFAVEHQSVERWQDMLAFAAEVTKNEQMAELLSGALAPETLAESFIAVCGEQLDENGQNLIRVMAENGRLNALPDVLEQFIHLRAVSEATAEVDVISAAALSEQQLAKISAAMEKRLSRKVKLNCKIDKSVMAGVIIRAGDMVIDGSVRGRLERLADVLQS

CadA = target: T2, CadA (E. coli K-12, UniProt P0A9H3 1-715)
T2 construct: CadA, E. coli K-12
T2 sequence (looked up): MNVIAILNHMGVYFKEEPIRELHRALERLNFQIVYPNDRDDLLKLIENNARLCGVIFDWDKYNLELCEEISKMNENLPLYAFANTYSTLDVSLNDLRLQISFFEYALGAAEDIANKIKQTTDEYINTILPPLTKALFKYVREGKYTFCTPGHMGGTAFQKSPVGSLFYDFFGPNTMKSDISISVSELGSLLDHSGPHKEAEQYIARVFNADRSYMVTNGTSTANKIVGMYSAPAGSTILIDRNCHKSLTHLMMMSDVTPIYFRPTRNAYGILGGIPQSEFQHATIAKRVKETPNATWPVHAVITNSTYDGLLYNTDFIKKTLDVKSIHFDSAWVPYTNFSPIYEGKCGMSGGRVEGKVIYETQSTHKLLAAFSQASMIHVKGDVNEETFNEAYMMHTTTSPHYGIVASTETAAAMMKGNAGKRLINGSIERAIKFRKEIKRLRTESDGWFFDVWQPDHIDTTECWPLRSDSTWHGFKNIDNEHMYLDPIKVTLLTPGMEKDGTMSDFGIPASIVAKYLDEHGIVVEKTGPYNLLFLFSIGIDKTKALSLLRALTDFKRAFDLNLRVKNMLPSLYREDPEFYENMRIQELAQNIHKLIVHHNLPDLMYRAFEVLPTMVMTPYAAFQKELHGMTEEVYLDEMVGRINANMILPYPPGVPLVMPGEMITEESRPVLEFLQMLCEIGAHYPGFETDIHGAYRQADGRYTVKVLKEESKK

YjgL = target: T3, YjgL (E. coli K-12, UniProt P39336 1-604)
T3 construct: YjgL, E. coli K-12
T3 sequence (looked up): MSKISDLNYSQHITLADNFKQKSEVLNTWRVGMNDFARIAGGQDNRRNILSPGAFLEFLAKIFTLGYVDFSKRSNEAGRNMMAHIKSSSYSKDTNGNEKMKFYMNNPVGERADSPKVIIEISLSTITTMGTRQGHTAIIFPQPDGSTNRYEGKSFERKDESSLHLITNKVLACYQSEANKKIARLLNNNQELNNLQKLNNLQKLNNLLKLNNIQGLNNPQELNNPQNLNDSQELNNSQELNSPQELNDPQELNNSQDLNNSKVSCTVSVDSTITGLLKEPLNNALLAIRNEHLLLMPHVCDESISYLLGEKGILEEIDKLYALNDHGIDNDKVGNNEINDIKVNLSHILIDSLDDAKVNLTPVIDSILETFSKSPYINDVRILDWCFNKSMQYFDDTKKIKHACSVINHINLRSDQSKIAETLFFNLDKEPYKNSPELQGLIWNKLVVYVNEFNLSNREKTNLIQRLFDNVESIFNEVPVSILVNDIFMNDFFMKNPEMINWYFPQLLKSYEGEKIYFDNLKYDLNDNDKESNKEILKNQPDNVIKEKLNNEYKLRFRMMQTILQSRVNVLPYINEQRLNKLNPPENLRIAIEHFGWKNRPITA

YqhC = target: T4, YqhC (E. coli K-12, UniProt Q46855 1-318)
T4 construct: YqhC, E. coli K-12
T4 sequence (looked up): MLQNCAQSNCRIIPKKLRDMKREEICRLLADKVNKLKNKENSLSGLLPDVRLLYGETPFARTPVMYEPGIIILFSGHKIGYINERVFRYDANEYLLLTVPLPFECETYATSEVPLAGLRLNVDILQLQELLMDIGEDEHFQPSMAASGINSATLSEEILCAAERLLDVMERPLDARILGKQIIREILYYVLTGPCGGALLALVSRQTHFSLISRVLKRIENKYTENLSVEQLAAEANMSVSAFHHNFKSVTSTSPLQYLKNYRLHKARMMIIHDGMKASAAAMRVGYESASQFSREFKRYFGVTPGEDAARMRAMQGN

HolB = target: T5, HolB (E. coli K-12, UniProt P28631 1-334)
T5 construct: HolB, E. coli K-12
T5 sequence (P28631 whole entry): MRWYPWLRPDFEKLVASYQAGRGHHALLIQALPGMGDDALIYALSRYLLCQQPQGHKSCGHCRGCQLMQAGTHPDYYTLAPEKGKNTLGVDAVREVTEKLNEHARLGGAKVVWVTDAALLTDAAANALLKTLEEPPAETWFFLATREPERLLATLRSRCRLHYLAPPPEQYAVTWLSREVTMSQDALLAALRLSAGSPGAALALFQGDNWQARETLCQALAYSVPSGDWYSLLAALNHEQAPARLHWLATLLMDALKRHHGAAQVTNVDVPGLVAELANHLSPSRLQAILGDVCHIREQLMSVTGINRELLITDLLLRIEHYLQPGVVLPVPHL

YhjH = target: T6, YhjH (E. coli K-12, UniProt P37646 1-255)
T6 construct: YhjH, E. coli K-12
T6 sequence (looked up): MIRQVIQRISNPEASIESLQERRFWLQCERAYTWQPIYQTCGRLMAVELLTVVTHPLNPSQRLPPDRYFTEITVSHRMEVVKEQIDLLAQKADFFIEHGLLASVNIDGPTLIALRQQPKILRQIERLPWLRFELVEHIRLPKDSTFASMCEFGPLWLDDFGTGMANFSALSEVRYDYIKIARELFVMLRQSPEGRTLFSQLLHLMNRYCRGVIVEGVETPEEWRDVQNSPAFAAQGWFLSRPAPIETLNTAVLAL

Measured: binding result

B1: N-terminal biotinylated Lactoferricin B (peptide, UniProt P24627 36-60, looked up)
peptide: Biotin-FKCRRWQWRMKKLGAPSITCVRRAF
modifications: ends and bridges not checked
notes: lactoferricin B (LfcinB), cationic antimicrobial peptide of 25 amino acids; also called biotinylated LfcinB; biotin-labeled LfcinB; source: bought: Kelowna Inc
binds: all assays above

Source: paper PMC3229523, “Identification of Lactoferricin B Intracellular Targets Using an Escherichia coli Proteome Chip” (PLoS ONE, 2011)
